Data from doi:10.1101/2023.09.21.558797, “Dynamin 1xA interacts with Endophilin A1 via its spliced long C-terminus for ultrafast endocytosis” (bioRxiv, 2023).
No end group written: not given here.

B1: Endophilin A1 SH3 domain (GST tag removed) (domain or fragment)
chain: not shown
notes: Endophilin A1, mouse, SH3 domain, amino acids 292-352 by the methods (the results say residues D291-H352); plasmid from Peter McPherson (McGill University); unlabelled in the titrations; also called endophilin SH3; Endophilin A SH3; source: E. coli JM109, GST tag proteolytically cleaved, purified by gel filtration
B2: His-tagged mouse Endophilin A1 SH3 domain (domain or fragment)
chain: not shown
notes: Endophilin A1, mouse, SH3 domain; the methods describe only a GST-Endophilin A1-SH3 construct (mouse, 292-352); no His-tagged construct is described there; also called His-tagged mouse Endophilin-SH3 domain

Legend:
Conditions in all cases: both partners purified
[1] = molecular target: T1, Dyn1xA-PRR 746-864 (GST tag removed) (rat, UniProt P21575 746-864, 15N-labelled (or 15N, 13C labelled) for NMR); test: SEC-MALS; Superdex 75 10/300 GL, 20 mM HEPES, 100 mM NaCl, 1 mM DTT, 1 mM PMSF, pH 7.2; complex at 0.5 mg and diluted to one third (0.167 mg)
T1 construct: the SEC-MALS mass (19.2 kDa for the 1:1 complex) fits the cleaved forms; also called PRD; source: E. coli JM109, GST tag proteolytically cleaved, purified by gel filtration
T1 sequence (looked up): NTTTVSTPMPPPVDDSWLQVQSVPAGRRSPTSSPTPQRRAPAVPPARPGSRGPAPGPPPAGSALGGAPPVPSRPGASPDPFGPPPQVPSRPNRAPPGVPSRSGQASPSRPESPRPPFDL

[2] = molecular target: T2, GST-Dyn1xA-PRR (full-length proline-rich region of Dynamin 1 splice variant xA, 746-864) (rat, UniProt P21575 746-864); test: ELISA; His-tagged mouse Endophilin A1 SH3 domain coated on a 96-well plate, overlaid with increasing concentrations of GST-tagged Dyn1-PRR peptides; two experiments of four replicates
T2 construct: cloned in pGEX-6P-1; used on beads in pull-downs and in solution in the ELISA; also called PRD
T2 sequence (looked up): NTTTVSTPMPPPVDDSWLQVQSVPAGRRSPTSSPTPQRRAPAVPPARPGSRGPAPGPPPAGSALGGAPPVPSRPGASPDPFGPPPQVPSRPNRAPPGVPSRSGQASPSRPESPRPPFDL

[3] = molecular target: B2; test: as above
[4] = molecular target: B1; test: NMR titration; 1H-15N HSQC chemical shift perturbation; unlabelled Endophilin A1 SH3 titrated into 15N-labelled Dyn1 peptide; 298 K, 600 MHz

Sequence of His-tagged mouse Endophilin A1 SH3 domain (Q62420 290-349): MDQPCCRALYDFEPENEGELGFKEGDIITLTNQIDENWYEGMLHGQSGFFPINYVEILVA

## B1
[1]
  stoichiometry N: 1

## B2
[2]
  Kd: 44 nM

B3: GST-Dyn1xA 746-798 (domain or fragment, rat, UniProt P21575 746-798, looked up)
chain: NTTTVSTPMPPPVDDSWLQVQSVPAGRRSPTSSPTPQRRAPAVPPARPGSRGP
notes: Dynamin 1, rat, N746 to P798 of the PRR, common to splice variants xA and xB; also called phosphobox-1 peptide
[3]
  fold weaker affinity than xA_(746–864): 9 fold

B4: Dyn1xA 746-798 (GST tag removed) (domain or fragment, rat, UniProt P21575 746-798, looked up)
chain: NTTTVSTPMPPPVDDSWLQVQSVPAGRRSPTSSPTPQRRAPAVPPARPGSRGP
modifications: also: 15N-labelled (13C/15N for assignment)
notes: Dynamin 1, rat, N746 to P798 of the PRR; source: E. coli JM109, GST tag proteolytically cleaved, purified by gel filtration
[4]
  binding result: binds

B5: GST-Dyn1xA 806-864 (domain or fragment, rat, UniProt P21575 806-864, looked up)
chain: GSALGGAPPVPSRPGASPDPFGPPPQVPSRPNRAPPGVPSRSGQASPSRPESPRPPFDL
notes: Dynamin 1 splice variant xA, rat, G806 to L864
[3]
  fold difference in affinity from xA_(746–864): < 2 fold
  fold higher affinity than xA_(746–798): 5 fold

B6: Dyn1xA 806-864 (GST tag removed) (domain or fragment, rat, UniProt P21575 806-864, looked up)
chain: GSALGGAPPVPSRPGASPDPFGPPPQVPSRPNRAPPGVPSRSGQASPSRPESPRPPFDL
modifications: also: 15N-labelled (13C/15N for assignment)
notes: Dynamin 1 splice variant xA, rat, G806 to L864; source: E. coli JM109, GST tag proteolytically cleaved, purified by gel filtration
[4]
  binding result: binds
